# Results reported in paper PMC4188072, “Structure of a short-chain dehydrogenase/reductase (SDR) within a genomic island from a clinical strain of Acinetobacter baumannii” (Acta Crystallographica. Section F, Structural Biology …, 2014).
# Target: the molecule itself
# Experiment: SEC; Superdex G200 10/300 column, 50 mM HEPES buffer pH 7.5, 300 mM NaCl, 5% (v/v) glycerol; native mass 120 kDa against a 30 kDa band on SDS-PAGE
protein,measurement,value
"SDR-WM99c short-chain dehydrogenase/reductase from Acinetobacter baumannii WM99c (enzyme, A. baumannii (strain WM99c), selenomethionine (cells grown in selenomethionine medium; Se sites located in the crystal), SDR-WM99c, hypothetical protein encoded in genomic island GI_12 of A. baumannii strain WM99c; total chain length 255 residues; also called SDR-WM99c dehydrogenase; source: E. coli BL21 (DE3) pLysS, grown in selenomethionine medium, purified (Ni-NTA); not shown: His6, N-terminal, kept) MNIFDVKDKYILITGASSGLGHHIAELFAKEGANIVICARRLERLKELESHIKNEYGVQVYTFALDVNDRSAVKDMLSSLEAEGVTIDVLINNAGVSDTKRFLDYNDEDWDKIVDTNLKAPWQCAQEVVQHMIKAERKGSIINITSILSQSTNLGVSPYCASKAGLRHLTEVMAVELARFGINVNAIAPGYMITEINEEYLTSEVGQQLLKKIPTRKFVEFDDLNGPLLLLASQAGQGITGIEIKVDGGHSAAPI",stoichiometry N,4
